Assay results published in the RNAGym collection of RNA variant scans (doi:10.1021/acssynbio.7b00057).

B1: Pistol ribozyme (parent)
chain: GGGUCGUUGUUCCAUAAUCGCGUGGAUAUGGCACGCAAGUUUCUACCGGGCACCGUAAAUGUCCGACUGGAGCCGUUCGGGCGGCUAUAAACAGACCUCAGGCCCGAAGCGUGGCGGCACCUGCCGCCGGUGGUAAAAAAGAUCGGAAGAGCACACGUCU

Variants of: B1
Assay: aptazyme ON/OFF ratio, guanine; higher = stronger switching; co-transcriptional cleavage with and without guanine

Variant | aptazyme ON/OFF ratio
U7A U8G U10G U11G C12G C13G | 1.03
U7A U8G U10G U11G C12G C13A | 1.45
U7A U8G U10G | 1.25
U7A U8G U11G C12G C13G | 1.32
U7A U8G U11G C12G C13A | 1.15
U7A U8G U11G C12G C13U | 1.42
U7A U8G U10C U11C C12A C13G | 1.3
U7A U8G U10C U11C C12A C13U | 1.49
U7A U8G U10C U11C C12A C13A | 1.61
U7A U8G U10G U11A C13U | 1.3
U7A U8G U10G U11A C13A | 1.4
U7A U8G U10G U11A C13G | 1.27
U7A U8G U10G U11G C12U | 1.42
U7A U8G U10G U11G C12G | 1.31
U7A U8G U10G U11G C12A | 1.24
U7A U10G U11A C12U C13A | 1.29
U7A U10G U11A C12U C13U | 1.07
U7A U10G U11A C12U C13G | 1.13
U7A U10C U11G C13U | 1.17
U7A U10C U11G C13G | 1.2
U7A U10C U11G C13A | 1.24

Variant | aptazyme ON/OFF ratio
U7A U10C U11A C12G C13U | 1.29
U7A U10C U11A C12G C13G | 1.26
U7A U10C U11A C12G C13A | 1.22
U7A U8G U11G C12U C13U | 1.22
U7A U8G U11G C12U C13G | 1.29
U7A U8G U11G C12U C13A | 1.63
U7A U8G U11G C12A C13A | 1.18
U7A U8G U11G C12A C13G | 1.33
U7A U8G U11G C12A C13U | 1.21
U7A U8G U11A C12A C13G | 1.3
U7A U8G U11A C12A C13U | 1.07
U7A U8G U11A C12A C13A | 1.41
U7A U10G U11C C12A C13A | 1.33
U7A U10G U11C C12A C13U | 1.2
U7A U10G U11C C12A C13G | 1.12
U7A U8G U10C U11C C12U C13A | 1.45
U7A U8G U10C U11C C12U C13G | 1.18
U7A U8G U10C U11C C12U C13U | 1.17
U7A U8G U10C U11C | 2.69
U7A U8G U10C U11G | 1.29
U7A U8G U10G U11G C13U | 1.32

Variant | aptazyme ON/OFF ratio
U7A U8G U10G U11G C13A | 1.39
U7A U8G U10G U11G C13G | 1.29
U7A U8G U11A C12G | 1.2
U7A U8G U11A C12A | 1.43
U7A U8G U11A C12U | 1.23
U7A U10A C12A C13G | 1.1
U7A U10A C12A C13A | 1.27
U7A U10A C12A C13U | 1.39
U7A U8G U11G C12G | 1.36
U7A U8G U11G C12U | 1.29
U7A U8G U11G C12A | 1.31
U7A U10C U11C C12A | 1.1
U7A U10C U11C C12G | 1.14
U7A U10C U11C C12U | 1.04
U7A U10G U11C C12U C13U | 1.21
U7A U10G U11C C12U C13G | 1.41
U7A U10G U11C C12U C13A | 1.3
U7A U10G C12A C13U | 1.2
U7A U10G C12A C13G | 1.09
U7A U10G C12A C13A | 1.16
U7A U10C C12U C13A | 1.16

Variant | aptazyme ON/OFF ratio
U7A U10C C12U C13G | 1.09
U7A U10C C12U C13U | 1.33
U7A U8G U10G C12A | 1.17
U7A U8G U10G C12U | 1.37
U7A U8G U10G C12G | 1.21
U7A U10G U11A C13A | 1.11
U7A U10G U11A C13U | 1.06
U7A U10G U11A C13G | 1.09
U7A U10G U11C C12A | 1.76
U7A U10G U11C C12U | 1.09
U7A U10G U11C C12G | 1.64
U7A U8G U10C U11C C12U | 1.53
U7A U8G U10C U11C C12A | 1.62
U7A U8G U10C U11C C12G | 1.42
U7A U10C U11A C12U C13G | 1.14
U7A U10C U11A C12U C13A | 1.17
U7A U10C U11A C12U C13U | 1.26
U7A U10C U11G C12G C13A | 1.24
U7A U10C U11G C12G C13U | 1.18
U7A U10C U11G C12G C13G | 1.31
